Experimental data published in patent US20110014669A1, “Production of 1,4 Butanediol in a Microorganism” (Microbia, Inc., priority 2009, published 2011).

B1: SpeFEc: Enzyme candidate for BDO biosynthetic pathway step A5, SEQ ID NO. 63 (protein, listed as Escherichia coli)
chain: MSKLKIAVSDSCPDCFTTQRECIYINESRNIDVAAIVLSLNDVTCGKLDEIDATGYGIPVFIATENQERVPAEYLPRISGVFENCESRREFYGRQLETAASHYETQLRPPFFRALVDYVNQGNSAFDCPGHQGGEFFRRHPAGNQFVEYFGEALFRADLCNADVAMGDLLIHEGAPCIAQQHAAKVFNADKTYFVLNGTSSSNKVVLNALLTPGDLVLFDRNNHKSNHHGALLQAGATPVYLETARNPYGFIGGIDAHCFEESYLRELIAEVAPQRAKEARPFRLAVIQLGTYDGTIYNARQVVDKIGHLCDYILFDSAWVGYEQFIPMMADCSPLLLDLNENDPGILVTQSVHKQQAGFSQTSQIHKKDSHIKGQQRYVPHKRMNNAFMMHASTSPFYPLFAALNINAKMHEGVSGRNMWMDCVVNGINARKLILDNCQHIRPFVPELVDGKPWQSYETAQIAVDLRFFQFVPGEHWHSFEGYAENQYFVDPCKLLLTTPGIDARNGEYEAFGVPATILANFLRENGVVPEKCDLNSILFLLTPAEDMAKLQQLVALLVRFEKLLESDAPLAEVLPSIYKQHEERYAGYTLRQLCQEMHDLYARHNVKQLQKEMFRKEHFPRVSMNPQEANYAYLRGEVELVRLPDAEGRIAAEGALPYPPGVLCVVPGEIWGGAVLRYFSALEEGINLLPGFAPELQGVYIEEHDGRKQVWCYVIKPRDAQSTLLKGEKL
B2: PanDEc: Enzyme candidate for BDO biosynthetic pathway step A5, SEQ ID NO. 61 (protein, listed as Escherichia coli)
chain: MIRTMLQGKLHRVKVTHADLHYEGSCAIDQDFLDAAGILENEAIDIWNVTNGKRFSTYAIAAERGSRIISVNGAAAHCASVGDIVIIASFVTMPDEEARTWRPNVAYFEGDNEMKRTAKAIPVQVA
B3: LdcCEc: Enzyme candidate for BDO biosynthetic pathway step A5, SEQ ID NO. 62 (protein, listed as Escherichia coli)
chain: MNIIAIMGPHGVFYKDEPIKELESALVAQGFQIIWPQNSVDLLKFIEHNPRICGVIFDWDEYSLDLCSDINQLNEYLPLYAFINTHSTMDVSVQDMRMALWFFEYALGQAEDIAIRMRQYTDEYLDNITPPFTKALFTYVKERKYTFCTPGHMGGTAYQKSPVGCLFYDFFGGNTLKADVSISVTELGSLLDHTGPHLEAEEYIARTFGAEQSYIVTNGTSTSNKIVGMYAAPSGSTLLIDRNCHKSLAHLLMMNDVVPVWLKPTRNALGILGGIPRREFTRDSIEEKVAATTQAQWPVHAVITNSTYDGLLYNTDWIKQTLDVPSIHFDSAWVPYTHFHPIYQGKSGMSGERVAGKVIFETQSTHKMLAALSQASLIHIKGEYDEEAFNEAFMMHTTTSPSYPIVASVETAAAMLRGNPGKRLINRSVERALHFRKEVQRLREESDGWFFDIWQPPQVDEAECWPVAPGEQWHGFNDADADHMFLDPVKVTILTPGMDEQGNMSEEGIPAALVAKFLDERGIVVEKTGPYNLLFLFSIGIDKTKAMGLLRGLTEFKRSYDLNLRIKNMLPDLYAEDPDFYRNMRIQDLAQGIHKLIRKHDLPGLMLRAFDTLPEMIMTPHQAWQRQIKGEVETIALEQLVGRVSANMILPYPPGVPLLMPGEMLTKESRTVLDFLLMLCSVGQHYPGFETDIHGAKQDEDGVYRVRVLKMAG
B4: PoxBEc: Enzyme candidate for BDO biosynthetic pathway step A5, SEQ ID NO. 60 (protein, listed as Escherichia coli)
chain: MKQTVAAYIAKTLESAGVKRIWGVTGDSLNGLSDSLNRMGTIEWMSTRHEEVAAFAAGAEAQLSGELAVCAGSCGPGNLHLINGLFDCHRNHVPVLAIAAHIPSSEIGSGYFQETHPQELFRECSHYCELVSSPEQIPQVLAIAMRKAVLNRGVSVVVLPGDVALKPAPEGATMHWYHAPQPVVTPEEEELRKLAQLLRYSSNIALMCGSGCAGAHKELVEFAGKIKAPIVHALRGKEHVEYDNPYDVGMTGLIGFSSGFHTMMNADTLVLLGTQFPYRAFYPTDAKIIQIDINPASIGAHSKVDMALVGDIKSTLRALLPLVEEKADRKFLDKALEDYRDARKGLDDLAKPSEKAIHPQYLAQQISHFAADDAIFTCDVGTPTVWAARYLKMNGKRRLLGSFNHGSMANAMPQALGAQATEPERQVVAMCGDGGFSMLMGDFLSVVQMKLPVKIVVFNNSVLGFVAMEMKAGGYLTDGTELHDTNFARIAEACGITGIRVEKASEVDEALQRAFSIDGPVLVDVVVAKEELAIPPQIKLEQAKGFSLYMLRAIISGRGDEVIELAKTNWLR
B5: YeaUEc: Enzyme candidate for BDO biosynthetic pathway step A5, SEQ ID NO. 59 (protein, listed as Escherichia coli)
chain: MMKTMRIAAIPGDGIGKEVLPEGIRVLQAAAERWGFALSFEQMEWASCEYYSHHGKMMPDDWHEQLSRFDAIYFGAVGWPDTVPDHISLWGSLLKFRREFDQYVNLRPVRLFPGVPCPLAGKQPGDIDFYVVRENTEGEYSSLGGRVNEGTEHEVVIQESVFTRRGVDRILRYAFELAQSRPRKTLTSATKSNGLAISMPYWDERVEAMAENYPEIRWDKQHIDILCARFVMQPERFDVVVASNLFGDILSDLGPACTGTIGIAPSANLNPERTFPSLFEPVHGSAPDIYGKNIANPIATIWAGAMMLDFLGNGDERFQQAHNGILAAIEEVIAHGPKTPDMKGNATTPQVADAICKIILR
B6: GadBEc: Enzyme candidate for BDO biosynthetic pathway step A5, SEQ ID NO. 64 (protein, listed as Escherichia coli)
chain: MDKKQVTDLRSELLDSRFGAKSISTIAESKRFPLHEMRDDVAFQIINDELYLDGNARQNLATFCQTWDDENVHKLMDLSINKNWIDKEEYPQSAAIDLRCVNMVADLWHAPAPKNGQAVGTNTIGSSEACMLGGMAMKWRWRKRMEAAGKPTDKPNLVCGPVQICWHKFARYWDVELREIPMRPGQLFMDPKRMIEACDENTIGVVPTFGVTYTGNYEFPQPLHDALDKFQADTGIDIDMHIDAASGGFLAPFVAPDIVWDFRLPRVKSISASGHKFGLAPLGCGWVIWRDEEALPQELVFNVDYLGGQIGTFAINFSRPAGQVIAQYYEFLRLGREGYTKVQNASYQVAAYLADEIAKLGPYEFICTGRPDEGIPAVCFKLKDGEDPGYTLYDLSERLRLRGWQVPAFTLGGEATDIVVMRIMCRRGFEMDFAELLLEDYKASLKYLSDHPKLQGIAQQNSFKHT
B7: MenDEc: Enzyme candidate for BDO biosynthetic pathway step A5, SEQ ID NO. 65 (protein, listed as Escherichia coli)
chain: MSVSAFNRRWAAVILEALTRHGVRHICIAPGSRSTPLTLAAAENSAFIHHTHFDERGLGHLALGLAKVSKQPVAVIVTSGTAVANLYPALIEAGLTGEKLILLTADRPPELIDCGANQAIRQPGMFASHPTHSISLPRPTQDIPARWLVSTIDHALGTLHAGGVHINCPFAEPLYGEMDDTGLSWQQRLGDWWQDDKPWLREAPRLESEKQRDWFFWRQKRGVVVAGRMSAEEGKKVALWAQTLGWPLIGDVLSQTGQPLPCADLWLGNAKATSELQQAQIVVQLGSSLTGKRLLQWQASCEPEEYWIVDDIEGRLDPAHHRGRRLIANIADWLELHPAEKRQPWCVEIPRLAEQAMQAVIARRDAFGEAQLAHRICDYLPEQGQLFVGNSLVVRLIDALSQLPAGYPVYSNRGASGIDGLLSTAAGVQRASGKPTLAIVGDLSALYDLNALALLRQVSAPLVLIVVNNNGGQIFSLLPTPQSERERFYLMPQNVHFEHAAAMFELKYHRPQNWQELETAFADAWRTPTTTVIEMVVNDTDGAQTLQQLLAQVSHL

The molecules below were run on 5-hydroxy-2-oxopentanoate (assay: Enzyme assay, decarboxylase (step A5), aldehyde dehydrogenase linked reaction). Conditions: BDO biosynthetic pathway step A5.
Assay type: biochemical
Parameters: key: +: measureable activity detected in the assay; −: no measurable activity detected in the assay
Procedure: Enzyme expression and crude lysate preparation. The enzymatic activity of each candidate enzyme is evaluated, first in E. coli and subsequently in C. glutamicum. It will be apparent to one of skill in the art that the expression and lysate preparations may need to be modified depending on the host cell and recombinant gene of interest.
E. coli: E. coli strains transformed with expression clones, for example, pUC18 or MB4124 based clones having a medium strong constitutive promoter regulating the recombinant gene of interest, are grown aerobically in LB medium (Difco) containing the appropriate antibiotic(s). At an OD600 of 0.5, IPTG is added to a final concentration of 0.25 mM. The cultures are grown to a final OD600 of 1.5 at which time the cells are collected and harvested by centrifugation. Cell pellets are resuspended in BugBuster (Novagen) reagent containing benzonase and lysozyme. Alternatively, E. coli strains transformed with expression clones, are grown overnight aerobically at 37° C. in BHI containing the appropriate antibiotic(s). 300 μL of fresh overnight culture is used to inoculate 2.7 mL BHI containing 0.25 mM IPTG and the appropriate antibiotic. The cultures are grown aerobically for 4-5 hours at 37° C. at which time the cells are collected and harvested by centrifugation. Cell pellets are frozen at −80° C. for at least 15 minutes, then thawed and resuspended in BugBuster (Novagen) reagent. Lysis and lysate collection are performed according to the manufacturer's instructions and, for example, may involve use of a sonicator and/or French press. Cleared lysates are stored on ice until enzyme assays are performed.
C. glutamicum: C. glutamicum strains transformed with MB4124 expression clones containing the recombinant gene of interest are grown aerobically in BHI broth supplemented with the proper antibiotic(s). At an OD600 of 0.5, IPTG is added to a final concentration of 0.25 mM. The cultures are grown to a final OD600 of 1.5 at which time the cells are collected and harvested by centrifugation. The pellet is washed once in one volume of water and resuspended in lysis buffer (1.0 ml 1.0 M HEPES buffer, pH 7.5, 0.5 ml 1M KOH, 10 μl 0.5M EDTA, protease inhibitor cocktail, water to 5 ml; the final pH will vary depending on the individual enzyme being tested) and one volume of 0.1 mm acid washed glass beads. The mixture is repeatedly alternately vortexed and held on ice for 15 seconds, eight times. After centrifugation for 5 min at 4,000 rpm, the supernatant lysate is removed and respun for 20 min at 10,000 rpm. Alternatively, C. glutamicum strains transformed with MB4124 expression clones containing the recombinant gene of interest are grown aerobically overnight in BHI broth supplemented with the proper antibiotic(s). Five mL of fresh overnight culture is used to inoculate 200 mL BHI containing 0.25 mM IPTG and the appropriate antibiotic. The cultures are grown aerobically at 30° C. for 5-7 hours at which time the cells are collected and harvested by centrifugation at 4° C. The pellet is resuspended in 15 mL ice cold 39 mM KH2PO4, 61 mM K2HPO4, 0.5 M KCl and lysed using a BioSpec BeadBeater and following the manufacturer's instructions. The lysate is centrifuged at 16,000 RPM at 4° C. for 30 minutes and the supernatant retained on ice as the extract.
Protein Assays. Protein concentrations in lysates are determined according to the methods of Bradford et al. (Anal. Biochem. 72:248-254 [1976]) or by the method of Smith et al. (Anal. Biochem. 150(1):76-85 [1985]) and lysates are assayed according to the methods below.
Enzyme Assays. Enzyme assays are performed on the cell lysates prepared above. The activity for each recombinant enzyme is compared to a lysate from a vector only control culture which is generated in a fashion identical to the recombinant enzyme lysate. […]

Molecule	Enzyme Assay
B1	−
B2	−
B3	−
B4	−
B5	−
B6	−
B7	−
